What was measured:
[1] = biological target: 5T4 antigen on cells (human (human cancer cell lines)) (UniProt Q13641); assay: flow cytometry (MFI) on 5T4 expressing cells, anti-Fc FITC detection
CD33 on HL-60 cells = CD33 on HL-60 cells (UniProt P20138); assay: cell-based or functional assay
UniProt P20138, sequence (P20138 18-364 limits assumed): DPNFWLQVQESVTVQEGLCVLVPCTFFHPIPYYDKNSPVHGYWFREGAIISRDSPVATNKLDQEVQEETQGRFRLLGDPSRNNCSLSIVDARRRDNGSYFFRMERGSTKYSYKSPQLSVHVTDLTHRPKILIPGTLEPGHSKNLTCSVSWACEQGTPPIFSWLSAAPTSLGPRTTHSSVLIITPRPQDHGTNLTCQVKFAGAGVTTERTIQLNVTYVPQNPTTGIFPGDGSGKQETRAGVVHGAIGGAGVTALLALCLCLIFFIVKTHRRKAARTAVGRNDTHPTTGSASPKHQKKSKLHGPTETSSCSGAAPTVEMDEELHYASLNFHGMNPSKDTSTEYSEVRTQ

UniProt Q13641, sequence (Q13641 32-420): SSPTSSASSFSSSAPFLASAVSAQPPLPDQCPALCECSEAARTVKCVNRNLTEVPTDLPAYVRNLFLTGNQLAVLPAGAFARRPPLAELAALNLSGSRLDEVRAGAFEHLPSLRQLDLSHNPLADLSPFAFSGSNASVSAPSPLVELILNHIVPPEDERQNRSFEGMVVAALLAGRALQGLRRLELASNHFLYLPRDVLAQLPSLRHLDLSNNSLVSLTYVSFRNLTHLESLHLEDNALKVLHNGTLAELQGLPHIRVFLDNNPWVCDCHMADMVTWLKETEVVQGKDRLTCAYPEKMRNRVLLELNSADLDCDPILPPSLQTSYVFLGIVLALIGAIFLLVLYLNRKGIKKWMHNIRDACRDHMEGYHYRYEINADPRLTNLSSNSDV

| fold less binding than the anti-5T4 scFvFc proteins [1] [fold less] | IC50, antiproliferation (Cell Titer-Glo), HL-60 cells (CD33 on HL-60 cells) [nmol/L] | Substance |
| --- | --- | --- |
| 200 | – | non-binding scFvFc fusion protein |
| – | 0.77 | Lintuzumab-((EG2-MI (2%)-(10 kDa PHF-BA (30%)-(AF-HPA-Ala (9%)), AF-HPA:lintuzumab about 10:1 to about 15:1 (antibody) |

Source: patent publication US20180140716A1
